Data as given in publication PMC10256154, “An unbroken network of interactions connecting flagellin domains is required for motility in viscous environments” (PLOS Pathogens, 2023).

Target: the molecule itself
Experiment: SEC; Superdex 200 Increase 10/300 GL; recombinant full-length FliC proteins after NiNTA, PBS buffer

B1: full-length FliC Δ204–205 of P. aeruginosa PAO1, recombinant (natural protein)
chain: MALTVNTNIASLNTQRNLNASSNDLNTSLQRLTTGYRINSAKDDAAGLQISNRLSNQISGLNVATRNANDGISLAQTAEGALQQSTNILQRIRDLALQSANGSNSDADRAALQKEVAAQQAELTRISDTTTFGGRKLLDGSFGTTSFQVGSNAYETIDISLQNASASAIGSYQVGSNGAGTVASVAGTATASGIASGTVNLVGQVKNIAIAAGDSAKAIAEKMDGAIPNLSARARTVFTADVSGVTGGSLNFDVTVGSNTVSLAGVTSTQDLADQLNSNSSKLGITASINDKGVLTITSATGENVKFGAQTGTATAGQVAVKVQGSDGKFEAAAKNVVAAGTAATTTIVTGYVQLNSPTAYSVSGTGTQASQVFGNASAAQKSSVASVDISTADGAQNAIAVVDNALAAIDAQRADLGAVQNRFKNTIDNLTNISENATNARSRIKDTDFAAETAALSKNQVLQQAGTAILAQANQLPQAVLSLLR
notes: Cloned in pET28-a with a C-terminal polyhistidine tag; source: E. coli BL21(DE3), purified (NiNTA, size-exclusion chromatography)
- stoichiometry N: 2
